{"source": "patent US20140148503", "about": "“NUCLEIC ACID APTAMERS” (University of Iowa Research Foundation, published 2014)", "binders": {"B1": {"name": "A9 (ssRNA)", "RNA": "GGGAGGACGAUGCGGACCGAAAAAGACCUGACUUCUAUACUAAGUCUACGUUCCCAGACGACUCGCCCGA", "modifications": "2'-F pyrimidines"}}, "key": {"[1]": {"target": "T1, BSA (bovine serum albumin) (UniProt P02769 P02769:25-607)", "T1 sequence (P02769 25-607, one chain of several)": "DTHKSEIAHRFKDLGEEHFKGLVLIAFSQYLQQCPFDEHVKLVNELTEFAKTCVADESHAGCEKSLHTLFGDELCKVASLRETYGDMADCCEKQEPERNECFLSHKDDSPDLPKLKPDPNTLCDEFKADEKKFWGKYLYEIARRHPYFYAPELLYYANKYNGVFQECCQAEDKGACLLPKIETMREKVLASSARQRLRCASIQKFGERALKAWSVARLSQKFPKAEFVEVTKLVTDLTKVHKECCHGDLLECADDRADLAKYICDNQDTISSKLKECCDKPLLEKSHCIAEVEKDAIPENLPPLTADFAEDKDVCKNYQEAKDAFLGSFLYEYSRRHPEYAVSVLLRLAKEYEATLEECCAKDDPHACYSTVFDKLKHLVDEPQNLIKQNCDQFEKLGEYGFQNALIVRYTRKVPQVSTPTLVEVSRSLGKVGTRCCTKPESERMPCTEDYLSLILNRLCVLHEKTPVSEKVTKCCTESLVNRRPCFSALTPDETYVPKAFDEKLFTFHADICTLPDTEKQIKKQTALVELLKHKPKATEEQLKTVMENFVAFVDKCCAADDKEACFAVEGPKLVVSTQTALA", "test": "SPR; no appreciable interaction; specificity control", "conditions": "label: 5'-biotin-spacer9-G", "description": "(§1) Surface Plasmon Resonance (SPR) measurements were carried out using a BIACore 3000 device. 5′-biotinylated RNA was generated by transcription and gel purification as described above, except the transcription reactions were carried out in the presence of 3 mM biotin-G (Custom order from TriLink Biotechnologies, San Diego, Calif.: 5′-(Biotin) (Spacer 9) G-3′). The biotinylated RNA was immobilized on a streptavidin-coated Biacore chip (Sensor Chip SA, 13R-1003-98, General Electric Company) by injection in binding buffer at a concentration of 25 μg/mL (20 mM HEPES, pH 7.4, 150 mM NaCl, 2 mM CaCl₂). The RNA was refolded by heating to 65° C. followed by cooling to 37° C. prior to immobilization. To measure binding kinetics, fixed concentrations of purified protein were injected over the chip using the “KINJECT” function at a flow rate of 15 μL/min. After binding, the chip was regenerated by injecting 50 mM NaOH with the “QUICKINJECT” function. […]\n(§2) Binding specificity of the A9g aptamer for PSMA was determined using SPR/BIACore (FIG. 4D; left panel). Binding specificity was assessed by comparing the kₒₙ, and koff rates of A9g for recombinant PSMA protein (target) to the Kₒₙ, and koff rates of A9g for non-target proteins (BSA and HER2). […] No appreciable interaction between A9g and the non-target proteins (BSA and HER2) was measured (FIG. 4D; left panel). […]"}, "[2]": {"target": "T2, PSMA (prostate specific membrane antigen) (Homo sapiens, UniProt Q04609 Q04609:44-750)", "T2 sequence (Q04609 44-750, one chain of several)": "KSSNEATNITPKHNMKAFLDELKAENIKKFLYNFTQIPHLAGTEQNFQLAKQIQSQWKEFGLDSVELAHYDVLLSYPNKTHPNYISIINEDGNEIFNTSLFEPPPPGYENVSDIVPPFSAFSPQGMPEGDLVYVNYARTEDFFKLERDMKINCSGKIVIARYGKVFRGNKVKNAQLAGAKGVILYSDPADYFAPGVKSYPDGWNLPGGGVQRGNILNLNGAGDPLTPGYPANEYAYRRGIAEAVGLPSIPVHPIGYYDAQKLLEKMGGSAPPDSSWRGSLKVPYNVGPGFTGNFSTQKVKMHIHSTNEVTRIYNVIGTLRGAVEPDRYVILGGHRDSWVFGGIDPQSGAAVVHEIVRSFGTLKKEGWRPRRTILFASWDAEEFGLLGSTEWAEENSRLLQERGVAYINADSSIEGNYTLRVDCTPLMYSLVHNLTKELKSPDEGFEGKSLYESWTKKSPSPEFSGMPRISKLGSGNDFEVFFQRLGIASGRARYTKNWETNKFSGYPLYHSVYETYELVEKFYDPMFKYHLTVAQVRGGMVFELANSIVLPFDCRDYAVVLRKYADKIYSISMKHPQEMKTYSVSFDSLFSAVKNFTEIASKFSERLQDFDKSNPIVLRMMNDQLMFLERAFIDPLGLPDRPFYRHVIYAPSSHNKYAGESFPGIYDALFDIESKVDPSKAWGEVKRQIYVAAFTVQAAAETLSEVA", "test": "SPR; 1:1 with mass transfer; range 5-30 nM in triplicate; 20 mM HEPES pH 7.4, 150 mM NaCl, 2 mM CaCl2", "conditions": "tags: R&D Systems 4234-ZN-010; chain copies: 2; label: 5'-biotin-spacer9-G", "description": "The data were fit to a 1:1 binding with mass transfer model. […] The on-rate (kₐ) was 1.15×10⁴ M⁻¹·S⁻¹ and the off-rate (kd) was 5.7×10⁻⁵ s⁻¹.\nSurface Plasmon Resonance (SPR) measurements were carried out using a BIACore 3000 device. 5′-biotinylated RNA was generated by transcription and gel purification as described above, except the transcription reactions were carried out in the presence of 3 mM biotin-G (Custom order from TriLink Biotechnologies, San Diego, Calif.: 5′-(Biotin) (Spacer 9) G-3′). The biotinylated RNA was immobilized on a streptavidin-coated Biacore chip (Sensor Chip SA, 13R-1003-98, General Electric Company) by injection in binding buffer at a concentration of 25 μg/mL (20 mM HEPES, pH 7.4, 150 mM NaCl, 2 mM CaCl₂). The RNA was refolded by heating to 65° C. followed by cooling to 37° C. prior to immobilization. […]\nThe NAALADase activity assay provides an indirect measurement of the interaction of the PSMA aptamers with PSMA. […] As determined by the filter binding assay, the A9g aptamer retains the same binding profile as the full-length A9 (FIG. 3A). […] After the injection was halted, the rate of dissociation (koff) was measured. By repeating these measurements at various analyte (PSMA) concentrations, an accurate estimation of binding was determined (KD=koff/Kₒₙ)."}, "[3]": {"target": "T2, PSMA (prostate specific membrane …)", "test": "SPR; lack of binding", "conditions": "tags: R&D Systems 4234-ZN-010; chain copies: 2; label: 5'-biotin-spacer9-G", "description": "as §1, §2"}, "[4]": {"target": "T1, BSA (bovine serum albumin)", "test": "SPR; no measurable binding", "conditions": "label: 5'-biotin-spacer9-G", "description": "as §1, §2"}, "[5]": {"target": "T2, PSMA (prostate specific membrane …)", "test": "filter; Bmax severely diminished", "conditions": "tags: R&D Systems 4234-ZN-010; chain copies: 2", "excerpt": "FIGS. 4A-4D. Characterization of A9g binding to PSMA. (A) Secondary structural predictions of truncated A9 aptamers generated using the RNAStructure 4.6 algorithm. Base changes are denoted by an asterisk (*). Base changes were introduced in an attempt to either retain the predicted secondary structure (A9g.1 and A9g.2) or disrupt various secondary structural elements (A9g.3-A9g.6) of A9g. Two secondary structure predictions were given for the A9g.4 sequence, denoted by A9g.4a and A9g.4b. (B) Effect of A9g aptamer derivatives (A9g.1 through A9g.6) on PSMA NAALADase inhibitor activity. NAALADase activity was measured and normalized as in FIG. 1. (C) Saturation filter binding assay of A9g aptamer and A9g aptamer derivatives (A9g.3-A9g.6). (D) Binding of A9g to recombinant human PSMA, recombinant rat HER2 (rHER2), and BSA using BIACore (left panel). Binding of A9g.6 to recombinant human PSMA, recombinant rat HER2 (rHER2), and BSA using BIACore (right panel).\n(§3) Filter binding assays were performed as previously described (Wong, I. and Lohman, T. M. (1993) A double-filter method for nitrocellulose-filter binding: application to protein-nucleic acid interactions. Prac Natl Acad Sci USA, 90, 5428-5432). Briefly, aptamers were 5′-end labeled with ³²P using PNK. RNA was incubated for 5 minutes with various concentrations of purified, recombinant human PSMA (4234-ZN-010) obtained from R&D Systems at 37° C. The reaction mixture was spotted onto a sandwich of nitrocellulose (Protran BA 83, 0.2 μm pore size, 10 402 488, Whatman), nylon (Zeta-Probe Blotting Membranes, 162-0153, Bio-Rad), and Whatman 3MM chromatography paper (3130-6189) assembled in a dot-blot apparatus. Bound RNA was captured on the nitrocellulose filter, while unbound RNA was captured on the nylon filter. The ratio of bound:unbound RNA was calculated by exposing the filters to a storage phosphor screen and imaging with a phosphorimager."}, "[6]": {"target": "T2, PSMA (prostate specific membrane …)", "test": "inhibition; NAALADase; 1 mM CoCl2, 37 C", "conditions": "tags: R&D Systems 4234-ZN-010; chain copies: 2", "description": "Refolding was accomplished by heating at 65° C. for 10 minutes, followed by cooling to 37° C. for 10 minutes. A volume of 120 μL of refolded RNA in binding buffer was added to an Eppendorf tube, was combined with 40 μL of 200 mM Tris buffer, pH 7.5, and 20 μL 10 mM CoCl₂ (final concentrations in the reaction 40 mM and 1 mM, respectively). Cobalt (II) chloride was reported to be a “stimulator of enzymatic activity” in the original NAALADase assay protocol (Xiao, Z., et al., (2000) Generation of a baculovirus recombinant prostate-specific membrane antigen and its use in the development of a novel protein biochip quantitative immunoassay. Protein Expr Purif, 19, 12-21). When this compound was omitted from the reaction, we observed increased non-specific RNA interactions. Two micrograms in 2 μL of recombinant human PSMA (4234-ZN-010) from R&D Systems (Minneapolis, Minn.) was diluted in 500 μL of 50 mM pH 7.5 Tris buffer. Ten microliters of the PSMA solution (40 ng PSMA) was added to the reaction mix, and the reaction was incubated for 5 minutes at 37° C. to promote RNA-PSMA interaction. For the experiment shown in FIG. 1A, recombinant, purified human PSMA was obtained courtesy of Dr. David Spencer (Baylor College of Medicine, Houston, Tex.). […]\nAG 1-X8 formate resin (200-400 mesh) columns from Bio-Rad (731-6221) were used to quantitate the [³H]-glutamate reaction product. […]"}, "[7]": {"target": "T2, PSMA (prostate specific membrane …)", "test": "cell_activity; transwell migration; invasion IC50 75 nM (FIG. 15C)", "conditions": "tags: PSMA-expressing cells, migration and invasion assays; chain copies: 2"}, "[8]": {"target": "T2, PSMA (prostate specific membrane …)", "test": "filter; 37 C", "conditions": "tags: R&D Systems 4234-ZN-010; chain copies: 2", "excerpt": "FIGS. 3A-3B. Binding of A9 and A9g to human PSMA. (A) A saturation filter binding assay was used to measure binding of A9 and A9g to recombinant human PSMA protein. […] The fraction bound was normalized to the Bₘₐₓ (maximal binding capacity) of A9. (B) Measurement of the binding affinity of A9g for recombinant human PSMA protein by surface plasmon resonance (SPR, BIACore). The data were fit to a 1:1 binding with mass transfer model. […] The on-rate (kₐ) was 1.15×10⁴ M⁻¹·S⁻¹ and the off-rate (kd) was 5.7×10⁻⁵ s⁻¹.\nas §3, with “Bound RNA was captured on the nitrocellulose filter, while unbound RNA was captured on the nylon filter.” left out"}, "[9]": {"target": "T2, PSMA (prostate specific membrane …)", "test": "inhibition; NAALADase of membrane extract", "conditions": "protein: extract; tags: membrane extract of PC-3 (PSMA+) cells stably expressing human PSMA; chain copies: 2"}, "[10]": {"target": "T2, PSMA (prostate specific membrane …)", "test": "32P-labeled RNA on cells, on ice", "conditions": "tags: 22Rv1 (1.7) prostate cancer cells; chain copies: 2", "description": "One day prior to the binding assay, cells were plated in a 24-well plate at a density of approximately 100,000 cells per well. All subsequent procedures were performed on ice to prevent aptamer internalization. Prior to binding, each well was washed twice with 1 ml of ice-cold Dulbecco's phosphate-buffered saline in the absence of divalent cations (DPBS −/−) to remove growth media. Aptamers were 5′ end-labeled with ³²P using PNK from New England Biolabs as previously described (McNamara, J. O., et al., (2008) Multivalent 4-1BB binding aptamers costimulate CD8+ T cells and inhibit tumor growth in mice. J Clin Invest, 118, 376-386). The concentration of ³²P-radiolabeled aptamer was measured with UV-visible absorption spectroscopy, and serial dilutions ranging from 1000 nM to 30 nM were performed. To measure non-specific binding, serial dilutions were also made containing a high fixed concentration of non-radiolabeled A9g aptamer, at 10 μM. […] Bound RNA was collected by washing with 0.5 ml of 0.5 N NaOH which was added to 3 ml of scintillation fluid, and activity was measured. For each dilution, specific binding was calculated by subtracting the activity of the sample with a high concentration of non-radiolabeled (“cold”) aptamer added (i.e., non-specific binding) from the sample without cold aptamer added (i.e., total binding). […]"}, "[11]": {"target": "T2, PSMA (prostate specific membrane …)", "test": "cell_activity; transwell migration", "conditions": "tags: PSMA-expressing cells, migration and invasion assays; chain copies: 2"}}}
{"binder": "GGGACCGAAAAAGACCUGACUUCUAUACUAAGUCUACGUUCCC (ssRNA, 2'-F pyrimidines)", "note": "[A9g 5'-biotin]", "values": [{"measurement": "binding result", "setting": "[1]", "result": "no binding"}, {"measurement": "Kd", "setting": "[2]", "result": 5, "unit": "nM"}]}
{"binder": "GGGACCGAAAAAGACCUGGCUUCUAUACUAAGUCUACGUUCCC (ssRNA, 2'-F pyrimidines)", "note": "[A9g.6 5'-biotin]", "values": [{"measurement": "binding result", "setting": "[3]", "result": "no binding"}, {"measurement": "binding result", "setting": "[4]", "result": "no binding"}]}
{"binder": "GGGACCGAAAAAGACCUGGCUUCUAUACUAAGUCUACGUUCCC (ssRNA, 2'-F pyrimidines)", "note": "[A9g.6]", "values": [{"measurement": "binding result", "setting": "[5]", "result": "no binding"}]}
{"binder": "GGGACCGAAAAAGACCUGACUUCUAUACUAAGUCUACGGUCCC (ssRNA, 2'-F pyrimidines)", "note": "[A9g.3 (U39G)]", "values": [{"measurement": "binding result", "setting": "[5]", "result": "no binding"}]}
{"binder": "GGGACCGAAAAAGACCUGACUUCUAUACUAGGUCUACGUUCCC (ssRNA, 2'-F pyrimidines)", "note": "[A9g.5]", "values": [{"measurement": "binding result", "setting": "[5]", "result": "no binding"}]}
{"binder": "GGGACCGAAAAAGACCUGACUUCUAUACUAAGUCUACGUUCCC (ssRNA, 2'-F pyrimidines)", "note": "[A9g]", "values": [{"measurement": "IC50", "setting": "[6]", "result": "~10", "unit": "nM"}, {"measurement": "IC50", "setting": "[7]", "result": 18, "unit": "nM"}, {"measurement": "Kd", "setting": "[8]", "result": 130, "unit": "nM"}, {"measurement": "IC50", "setting": "[9]", "result": 290, "unit": "nM"}, {"measurement": "binding signal", "setting": "[10]", "result": "~2 fold binding capacity vs PSMA-negative PC-3"}]}
{"binder": "B1", "values": [{"measurement": "IC50", "setting": "[11]", "result": 81, "unit": "nM"}, {"measurement": "IC50", "setting": "[6]", "result": "~10", "unit": "nM"}, {"measurement": "Kd", "setting": "[8]", "result": 110, "unit": "nM"}, {"measurement": "IC50", "setting": "[9]", "result": 267, "unit": "nM"}]}
